Results: US20260109763A1, “ANTI-PILRA ANTIBODIES, USES THEREOF, AND RELATED METHODS AND REAGENTS” (DENALI THERAPEUTICS INC., priority 2021, published 2026)

How the values were obtained:
[1] = target: human PILRA R78 on cells (human) (UniProt Q9UKJ1); experiment: target engagement in brain lysate of human PILRA (R78) BACtg mice, 1 day after dosing; MSD assay, bound versus total PILRA
[2] = target: human PILRA R78 on cells (human) (UniProt Q9UKJ1); experiment: target engagement in brain lysate of human PILRA (R78) BACtg mice, 4 days after dosing; MSD assay, bound versus total PILRA

Sequence of human PILRA R78 on cells (human) (Q9UKJ1 20-303 limits assumed): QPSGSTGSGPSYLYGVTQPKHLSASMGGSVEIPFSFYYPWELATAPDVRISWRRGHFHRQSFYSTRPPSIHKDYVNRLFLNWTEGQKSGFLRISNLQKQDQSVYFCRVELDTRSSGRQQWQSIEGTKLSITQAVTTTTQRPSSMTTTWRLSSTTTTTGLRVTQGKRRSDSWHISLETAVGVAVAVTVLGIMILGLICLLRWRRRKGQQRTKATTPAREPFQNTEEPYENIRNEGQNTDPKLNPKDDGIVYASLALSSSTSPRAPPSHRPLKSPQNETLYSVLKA

isotype control antibody
percent of brain human PILRA bound, 1 day [1]: 17%
percent of brain human PILRA bound, 4 days [2]: 16%
